Results on 41 sequences are retold here after the nanobody polyreactivity screen of Harvey et al. (2022).

The series is described as follows: yeast display, Sf9 membrane polyspecificity reagent, FACS + sequencing; frameworks hold sequencing errors. An outline of the steps: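 Genes from sorted yeast were amplified by colony PCR, read by MiSeq 2 × 250 sequencing and filtered on CDR length. These cells carried a synthetic nanobody library in Saccharomyces cerevisiae BJ5465 and were sorted by FACS into low and high (top ~1%) gates on anti-HA and streptavidin fluorescence. Polyreactivity is labelled according to the gate of origin.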
Regarding “QVQLVESGGGLVQAGGSLRLSCAASGIIFSYNFMGWYRQAPGKERELVAGISRSGGSTYYADSVKGRFTISRDNAKNTVYLQMNSLKPEDTAVYYCNTVERGQNRRPGDKARRYDWGQGTQVTVSS”, the “polyreactivity (PSR sort gate)” value is reported as “high polyreactivity”. To “QVQLVESGGGLVQAGGSLRLSCAASGIIFSYYAMGWYRQAPGKERELVAAITSGGGSTYYADSVKGRFTISRDNAKNTVYLQMNSLKPEDTAVYYCAADYNRELGRKFEYWGQGSQVTVSS” belongs “high polyreactivity”. To “QVQLVESGGGLVQAGGSLRLSCAASGIIFTFNAMGWYRQAPGKERELVASISITGDTYYADSVKGRFTISRDNAKNTVYLQMNSLKPEDTAVYYCAAEYYFYSRHWYISYDYWGQGTQVTVSS” belongs “low polyreactivity”. Then “QVQLVESGGGLVQAGGSLRLSCAASGIIFTFYTMGWYRQAPGKERELVAAITWSGGSTNYADSVKGRFTISRDNAKNTVYLQMNSLKPEDTAVYYCAAQGYPQSPPWEDYWGQGTQVTVSS”, with “low polyreactivity”. As for “QVQLVESGGGLVQAGGSLRLSCAASGIIFTGNAMGWYRQAPGKERELVAAITSGDTTNYADSVKGRFTISRDNAKNTVYLQKNSLKPEDTAVYYCAKELQVRQAGDYWGQGTQVTVSS”, the “polyreactivity (PSR sort gate)” value was “low polyreactivity”.

In the case of “QVQLVESGGGLVQAGGSLRLSCAASGIIFTGYAMGWYRQAPGKERELVAAISRSGGGTYYADSVKGRFTISRDNAKNTVYLQMNSLKPEDTAVDYCNRLRIAASYWQAYDYWGQGTQLTVSS”, the “polyreactivity (PSR sort gate)” value was “high polyreactivity”. On to “QVQLVESGGGLVQAGGSLRLSCAASGIIFTKYVMGWYRQAPGKERELVAAINTDGGSTRYADSVKGRFTISRDNAKNTVYLQMNSLKPEDTAVYYCAAVSSRRPGYEYYYWGQGTQVTVSS”, for which the “polyreactivity (PSR sort gate)” value is “high polyreactivity”. To “QVQLVESGGGLVQAGGSLRLSCAASGIIFTVYAMGWYRQPPGTERELVAAITSSGGRTYYADSVKGRFTISRDNAKNTVYLQMNSLKPDDTAVYYCAARRPGYVRKDDYWGQGTQVTVSS” belongs “high polyreactivity”; to “QVQLVESGGGLVQAGGSLRLSCAASGIIFTYAMGWYRQAPGKERELVAAIDWRGGRTYYADSVKGRFTISRDNAKNTVYLQMNSLKPEDTAVYYCAVGVLYAGYFYRYRYYYWGQGTQVTVSS”, “high polyreactivity”; to “QVQLVESGGGLVQAGGSLRLSCAASGIIFTYSAMGWYRQAPGKERELVAAISRRGGTTYYADSVKGRFTISRDNAKNTVYLQMNSLKPEDTAVYYCAKKWGWFPVYYWGQGTQVTVSS”, “high polyreactivity”. Then “QVQLVESGGGLVQAGGSLRLSCAASGIIFTYYAMGWYRQAPGKERELVAAISVSGSSTYYADSVKGRFTISRDNAKNTVYLQMNSLKPEDTAVYYCAARYQWGTRGFGYWGQGTLVTVSS”, with “high polyreactivity”. To “QVQLVESGGGLVQAGGSLRLSCAASGIIFTYYAMGWYRQAPGKERELVARISSSGGRTYYADSVKGRFTISRDNAKNTVYLQMNSLKPEDTAVYYCNAVTTKSFHRYDYWGQGTQVTVSS” belongs “high polyreactivity”. Regarding “QVQLVESGGGLVQAGGSLRLSCAASGIIFVDYVMGWYRQAPGKERELVAAITYTGGSTYYADSVKGRFTISRDNAKNTVYLQMNSLKPEDTAVYYCAARRKHRFFPAYYYWGQGTQVTVSS”, the “polyreactivity (PSR sort gate)” value was “high polyreactivity”. To “QVQLVESGGGLVQAGGSLRLSCAASGIIFVENAMGWYRQAPGKERELVASGDSTYYADSVKGRFTISRDNAKNTVYLQMNSLKPEDTAVYYCAVDHYSARLLARYDYWGQGTQVTVSS” belongs “low polyreactivity”; to “QVQLVESGGGLVQAGGSLRLSCAASGIIFVKYAMGWYRQAPGKERELVAAINWRTGRTYYADSVKGRFTISRDNAKNTVYLQMNSLKPEDTAVYYCAADVGIVIRLGRTEESGYYWGQGTQVTVSS”, “low polyreactivity”. To “QVQLVESGGGLVQAGGSLRLSCAASGIIFVKYVMGWYRQAPGKERELVAAISLGGGSTYYADSVKGRFTISRDNAKNTVYLQMNSLKPEDTAVYYCAAVRWTSRSRYDYWGQGTQVTVSS” belongs “high polyreactivity”. To “QVQLVESGGGLVQAGGSLRLSCAASGIIFVKYVMGWYRQAPGKERELVAAITGTGRTNYADSVKGRFTISRDNAKNTVYLQMNSLKPEDTAVYYCNARQAGTRYKYGYYGRYYWGQGTQVSVSS” belongs “high polyreactivity”; to “QVQLVESGGGLVQAGGSLRLSCAASGIIFVRYVMGWYRQAPGKERELVAAINWSGGSTYYAYSVKGRFTISRDNANNTVYLQMNSLKPEDTAVYYCAAGSARDDDYWGQGTQVPVSS”, “high polyreactivity”; to “QVQLVESGGGLVQAGGSLRLSCAASGIIFVSYDMGWYRQAPGKERELVAAINRGGRTYYADSVKGRFTISRDNAKNTVYLQMNSLKPEDTAVYYCAAQFHFRPFSWTYDYWGQGTQVTVSS”, “high polyreactivity”.

For “QVQLVESGGGLVQAGGSLRLSCAASGIIFVTYAMGWNRQAPGKEREFVAGINWNGGSTYYADSVKGRFTISRDNAKNTVYLQMNSLKPEDTAVYYCNAENYRVRQRSSVKYDYWGQVTQVTVSS”, the “polyreactivity (PSR sort gate)” value is given as “low polyreactivity”. To “QVQLVESGGGLVQAGGSLRLSCAASGIIFVYNAMGWYRQAPGKERELVAVISFIGDSTYYADSVKGRFTISRDNAKNTVYLQMNSLKPEDTAVYYCAADYYLPYWFFVGYDYWGQGTQVTVSS” belongs “low polyreactivity”. Then “QVQLVESGGGLVQAGGSLRLSCAASGIIFWAYALGWYRQAPGKERELVAVISRGGSTNYADSVKGRFTISRDNAKNTVYLQMNSLKPEDTAVYYCAARYGWGQGTQVTVSS”, with “high polyreactivity”; and “QVQLVESGGGLVQAGGSLRLSCAASGIIFWAYAMGWYRQAPGKERELVAVISRGGSTNYADSVKGRFTISRDNAKNTVYLQMNSLKPEDTAVYYCAARYGWGQGTQVTVSS”, with “high polyreactivity”; and “QVQLVESGGGLVQAGGSLRLSCAASGIIFWDNAMGWYRQAPGQDRELVASINYSGGSTYYADSVKGRFTISRDNAKNTVYLQMNSLKPEDTAVYDCAARTVTLDDWDYAYDYWGQGTQVTVSS”, with “low polyreactivity”.

“QVQLVESGGGLVQAGGSLRLSCAASGIIFWRYAMGWYRQAPGKERELVAAISSSGSTYYADSVKGRFTISRDNAKNTVYLQMNSLKPEDTAVYYCAAYSYPAGEYDYWGQGTQVTVSS”: the “polyreactivity (PSR sort gate)” value was “low polyreactivity”. Then “QVQLVESGGGLVQAGGSLRLSCAASGIIFWRYAMGWYRQAPGKERELVAGITSRGGSTYYADSVKGRFTISRDNAKNTVYLQMNSLKPEDTAVYYCNADWYGQLWWGVDYWGQGTQVTVSS”, with “high polyreactivity”. To “QVQLVESGGGLVQAGGSLRLSCAASGIIFWWYAMGWYRQAPGKERELVAAISGTGGSTYYADSVKGRFTISRDNAKNTVYFQMNSLKPEDTAVYYCAARGKSSSYYDYDYWGQGTQVTVSS” belongs “low polyreactivity”; to “QVQLVESGGGLVQAGGSLRLSCAASGIIFWYNAMGWYRQAPGKERELVASISTGGRTYYADSVKGRFTISRDNAKYTVYLQMNSLKPEDTAVYYCAAASRVGFLYYYWGQGTQVTVSS”, “low polyreactivity”.

With “QVQLVESGGGLVQAGGSLRLSCAASGIIFWYYAMVWYRHAPGKERELVASISGTGGTTYYADSVKGRFTISRDNAKNTVYLQMNSLKPEDTAVYDCSALSGQHDYDYWGQGTQVTVSS”, the “polyreactivity (PSR sort gate)” value is given as “low polyreactivity”. To “QVQLVESGGGLVQAGGSLRLSCAASGIIFYANAMGWYRQAPGKERELVAAISWSGSSTYYADSVKGRFTISRDNAKNTVYLQMNSLKPEDTAVYYCNKATSSVRYLKYYYWGQGTQVTVSS” belongs “high polyreactivity”; to “QVQLVESGGGLVQAGGSLRLSCAASGIIFYAYAMGWYRQAPGKEREFVAAINNSGGRTYYADSVKGRFTISRDNAKNTVYLQMNSLKPEDTAVYYCAVYSYYRRTYRREMDYWGQGTQVTVSS”, “high polyreactivity”; to “QVQLVESGGGLVQAGGSLRLSCAASGIIFYAYDMGWYRQAPGKERELVAAITFSAVSTYYADSVKGRFTISRDNAKNTVYLQMNSLKPEDTAVYYCAAEAYKHGVWDYDYWGQGTQVTVSS”, “low polyreactivity”.

Take “QVQLVESGGGLVQAGGSLRLSCAASGIIFYEYTMGWYRQAPGKERELVARISLRGGNTYYADSVKGRFTISRDNAKNTVYLQMNSLKPEDTAVYYCNADLYRQYASRYHYWGQGTQVTVSS”: the “polyreactivity (PSR sort gate)” value is recorded as “high polyreactivity”. On to “QVQLVESGGGLVQAGGSLRLSCAASGIIFYEYVMGWYRQAPGKERELVAAINRSGGSTYYADSVKGRFTISRDNAKNTVYLQMNSLKPEDTAVYYCAASSTYDGRKYYYWGQGTQVTVSS”, for which the “polyreactivity (PSR sort gate)” value is reported as “high polyreactivity”. Then “QVQLVESGGGLVQAGGSLRLSCAASGIIFYGNAMGWYRQAPGKERELVAAISWSGSSTYYADSVKGRFTISRDNAKNTVYLQMNSLKPEDTAVYYCNKATSSVRYLKYYYWGQGTQVTVSS”, with “high polyreactivity”; and “QVQLVESGGGLVQAGGSLRLSCAASGIIFYGNAMGWYRQAPGKERELVAAITWSGGSTYYADSVKGRFTISRDNAKNTVYLQLTSLKPEDTAVYYCAADFLYGFYYWGQGTQVTVSS”, with “low polyreactivity”; and “QVQLVESGGGLVQAGGSLRLSCAASGIIFYGYAMGWYRQAPGKERELVAAISSGGGTNYADSVKGRFTISRDNAKNTVYLQMNSLKPEDTAVYYCAAGGKKRDDYWGQGTQVTVSS”, with “high polyreactivity”. Then “QVQLVESGGGLVQAGGSLRLSCAASGIIFYGYAMGWYRQAPGKERELVATIRDSGAGTYYADSVKGRFTISRDNAKNTVYLQMNSLKPEDTAVYYCAATGWIRYDSWGQGTQVTVSS”, with “low polyreactivity”; and “QVQLVESGGGLVQAGGSLRLSCAASGIIFYHNTMGWYRQAPGKERELVAAISGSGGSTYYADSVKGRFTISRDNEKNTVYLQMKSLKPEDTAVYYCAAYRRRYPGFDYWGQGTQVTVSS”, with “high polyreactivity”; and “QVQLVESGGGLVQAGGSLRLSCAASGIIFYHYAMGWYRQPPGKERELVAAITWSGGTTYYADSVKGRFTISRDNAKNTVYLQMNSMKPEDTAVYYCNADYVPYGFDYWGQGTQVTVSS”, with “low polyreactivity”. Take “QVQLVESGGGLVQAGGSLRLSCAASGIIFYIYAMGWYRQAPGKERELVAAISSGGNTYYADSVKGRFTISRDNAKNTVYLQMNSLKPEDTAVYYCAAYSRKVSFQYRYDYWGQGTQVTVSS”: the “polyreactivity (PSR sort gate)” value is reported as “high polyreactivity”.
